# Patent US20170096490A1 (published 2017)
# B1: RANKL18hum3 (VHH)
# VHH: EVQLVESGGGLVQPGGSLRLSCAASGRTFSRSAMGWFRQAPGKGREFVGFITGSGGTTYYADSVKGRFTISRDNAQNPVYLQMNSLRPEDTAVYYCGVYRRTYISSTYSESSEYDYWGQGTLVTVSS
# How the values were obtained:
# [1] = molecular target: human RANK-L (Receptor Activator of Nuclear factor Kappa B Ligand), soluble (human) (UniProt O14788); assay: cell-based or functional assay
# [2] = molecular target: T1, human RANK-L (Receptor Activator of Nuclear factor Kappa B Ligand), soluble (human, UniProt O14788 140-317, limits assumed); assay: AlphaScreen, biotinylated RANK-L vs RANK-huFc beads
# T1 construct: Used plain, biotinylated or ALEXA647-labeled; also called hRANK-L; sRANK-L
# T1 sequence (looked up): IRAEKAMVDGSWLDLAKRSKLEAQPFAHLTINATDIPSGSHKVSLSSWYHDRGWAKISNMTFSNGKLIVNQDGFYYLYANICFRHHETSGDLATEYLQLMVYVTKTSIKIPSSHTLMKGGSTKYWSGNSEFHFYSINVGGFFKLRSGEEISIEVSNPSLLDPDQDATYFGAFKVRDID
# [3] = molecular target: T1, human RANK-L (Receptor Activator of …); assay: SPR BIACORE 3000, RANK-L on CM5 chip, 100 nM Nanobody
# [4] = molecular target: T1, human RANK-L (Receptor Activator of …); assay: SPR BIACORE 3000, RANK-L on CM5 chip, 100 nM Nanobody; indicative, one concentration
Molecule,"IC50, NF-kappaB reporter gene assay (luciferase, HEK293T, 300 ng/ml human RANK-L) [1] [nM]",IC50 [2] [nM],koff [3] [s⁻¹],Kd [4] [nM],kon [4] [M⁻¹ s⁻¹]
osteoprotegerin (from UniProt O00300 22-401) (receptor),6.03,,,,
B1,,0.274,0.000127,0.288,441000
